Results from patent US20250115664A1 (Bristol-Myers Squibb, published 2025).

Columns and labels:
[1] = target: T1, human TIM3 on cells (transfected CHO cells, activated human T cells, Th1 cells, TILs) (human, UniProt Q8TDQ0 22-300); assay: flow cytometry, human TIM3 positive cells (activated human T cells per paragraph 648), GMFI (PE); EC50 unit inferred, unit taken from the axis label ug/mL
T1 construct: also called hTIM3

[2] = target: T2, Human TIM3-IgV (Example 22) (human, UniProt Q8TDQ0 22-130); assay: SPR Biacore T200, 37 C; antibody captured on anti-hFc chip, TIM3 protein as analyte, single cycle kinetics, 1:1 model
T2 construct: also called hTim3-IgV; hTIM3-IgV

[3] = target: T1, human TIM3 on cells (transfected CHO …); assay: saturation binding of 125I-labeled antibody to CHO cells with human TIM3 (CHOhu TIM3 25K), table row Kd, column Total; the cell has no unit, nM is taken from the concentration axis
[4] = target: T3, cynomolgus TIM3 on cells (transfected CHO cells, activated cyno T cells, cyno spleen) (cynomolgus); assay: saturation binding of 125I-labeled antibody to CHO cells with cyno TIM3 (CHOcyno TIM3 25K), table row Kd, column Total; the cell has no unit, nM is taken from the concentration axis
T3 construct: also called cyno TIM3
T3 chain: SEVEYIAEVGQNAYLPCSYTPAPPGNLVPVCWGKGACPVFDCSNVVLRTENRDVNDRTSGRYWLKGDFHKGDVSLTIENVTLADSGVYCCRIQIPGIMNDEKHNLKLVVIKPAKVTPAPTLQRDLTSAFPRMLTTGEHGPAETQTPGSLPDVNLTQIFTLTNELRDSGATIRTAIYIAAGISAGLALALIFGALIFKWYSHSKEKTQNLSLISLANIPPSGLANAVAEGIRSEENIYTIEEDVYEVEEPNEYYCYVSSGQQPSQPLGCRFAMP

[5] = target: T1, human TIM3 on cells (transfected CHO …); assay: saturation binding of 125I-labeled antibody to CHO cells with human TIM3 (CHOhu TIM3 25K), table row Kd, column Specific Binding; the cell has no unit, nM is taken from the concentration axis and the box below

B1: anti-TIM3 monoclonal antibody 14H7 (antibody, V domains shown)
VH: QVHLVESGGGLVKPGGSLRLSCTAFSDYYMSWIRQAPGKGLEWLSYISNSGSIIYYADSVKGRFTISRDNAKNSVYLQMNSLRAEDTAVYYCARGRIGFFDYWGPGTLVTVSS
VL: not shown
EC50 [1]: 0.0139 µg/mL

B2: anti-TIM3 monoclonal antibody 23B3 (antibody, V domains shown)
VH: QVQLVGSGGGLVKPGGSLRLSCAASGFTFSDYYMSWIRQAPGKGLEWVSFISGSGSIIYYADSVKGRFTISRDNAKNSLDLQMNSLRAEDTAVYYCARDGMVRGMNFYGMDVWGQGTTVTVSS
VL: not shown
EC50 [1]: 0.0229 µg/mL

B3: anti-TIM3 monoclonal antibody 13A3 (antibody, V domains shown)
VH: QLQLQESGPGLVKPSETLSLTCTVSGGSISSRSYYWGWIRQPPGKGLEWIGSIYYSGFTYYNPSLKSRVTISVDTSKNQFSLKLSSVTAADTAVYYCATGGPYGDYAHWFDPWGQGTLVTVSS
VL: not shown
notes: also called 13A3-g4
EC50 [1]: 0.0116 µg/mL

B4: Tim3.18 (13A3 VH-N60Q-D101E), constant region not stated (antibody, V domains shown)
VH: QLQLQESGPGLVKPSETLSLTCTVSGGSISSRSYYWGWIRQPPGKGLEWIGSIYYSGFTYYQPSLKSRVTISVDTSKNQFSLKLSSVTAADTAVYYCATGGPYGDYAHWFEPWGQGTLVTVSS
VL: not shown
Kd [2]: 7.1 nM

B5: TIM3.18·IgG1.3 (antibody, V domains shown)
VH: QLQLQESGPGLVKPSETLSLTCTVSGGSISSRSYYWGWIRQPPGKGLEWIGSIYYSGFTYYQPSLKSRVTISVDTSKNQFSLKLSSVTAADTAVYYCATGGPYGDYAHWFEPWGQGTLVTVSS
VL: not shown
notes: also called TIM3.18 (13A3) IgG1.3f (N60Q/D101E)
Kd [3]: 0.278 nM
Kd [4]: 0.581 nM
Kd [5]: 0.262 nM

B6: TIM3.24 (14H7) (antibody, V domains shown)
VH: QVHLVESGGGLVKPGGSLRLSCTAFSDYYMSWIRQAPGKGLEWLSYISNSGSIIYYADSVKGRFTISRDNAKNSVYLQMNSLRAEDTAVYYCARGRIGFFDYWGPGTLVTVSS
VL: not shown
notes: also called 14H7/TIM3.24
Kd [2]: 14 nM
koff [2]: 0.011 s⁻¹
kon [2]: 780000 M⁻¹ s⁻¹

B7: TIM3.25 (23B3 VH-G6E-D79Y) (antibody, V domains shown)
VH: QVQLVESGGGLVKPGGSLRLSCAASGFTFSDYYMSWIRQAPGKGLEWVSFISGSGSIIYYADSVKGRFTISRDNAKNSLYLQMNSLRAEDTAVYYCARDGMVRGMNFYGMDVWGQGTTVTVSS
VL: not shown
Kd [2]: 2.2 nM
koff [2]: 0.0013 s⁻¹
kon [2]: 600000 M⁻¹ s⁻¹
